Test [1] relates to IRS-2. Description: 32P metabolic labeling and immunoprecipitation of IRS-2, Mv1Lu cells. In kind it is cell-based, mink. To be noted: Mv1Lu; for Induction of specific dephosphorylation (mobility change) of 32P-labeled IRS-2: IGFBPs 1 μg/ml, TGF-β1 20 pM.
The test system of test [2] is Mv1Lu cells. Description: [methyl-3H] thymidine incorporation (DNA synthesis), Mv1Lu cells. It counts as cell-based, mink. Particulars: Mv1Lu cells. A general note: Dividing cells build labelled thymidine or BrdU into new DNA.
Test [3] relates to LRP-1. Description: 125I-α2M* binding to Mv1Lu cells at pH 7.4. Also on record: species or system mink. Particulars: 10 μM protein, pH 7.4, Mv1Lu.
Test [4] concerns the target T1, acidic pH binding sites (Mus musculus, UniProt P14824).
T1 sequence (P14824 2-673): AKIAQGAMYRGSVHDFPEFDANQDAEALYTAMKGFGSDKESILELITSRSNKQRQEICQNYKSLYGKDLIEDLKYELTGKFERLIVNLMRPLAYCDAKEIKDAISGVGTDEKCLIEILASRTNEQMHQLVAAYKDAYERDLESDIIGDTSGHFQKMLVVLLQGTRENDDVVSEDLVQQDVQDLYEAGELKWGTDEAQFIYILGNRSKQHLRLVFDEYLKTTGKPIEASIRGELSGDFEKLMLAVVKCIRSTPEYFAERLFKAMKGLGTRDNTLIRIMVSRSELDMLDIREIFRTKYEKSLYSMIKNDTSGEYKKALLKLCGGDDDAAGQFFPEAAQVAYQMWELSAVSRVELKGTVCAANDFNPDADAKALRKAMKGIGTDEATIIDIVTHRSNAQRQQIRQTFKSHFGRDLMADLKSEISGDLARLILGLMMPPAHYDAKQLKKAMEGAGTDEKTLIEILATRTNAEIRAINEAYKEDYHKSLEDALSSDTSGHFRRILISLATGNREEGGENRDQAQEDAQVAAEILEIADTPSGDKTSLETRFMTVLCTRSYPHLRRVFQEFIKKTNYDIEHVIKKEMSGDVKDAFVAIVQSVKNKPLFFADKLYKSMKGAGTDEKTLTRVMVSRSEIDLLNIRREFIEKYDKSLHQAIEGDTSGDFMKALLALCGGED
Description: Specific binding of 125I-ligands to PEA-13 cells at acidic pH. Details: endogenous in cells; host or cells: PEA-13 (LRP-1-deficient mouse embryonic fibroblasts). Particulars: 10 μM protein, pH 5.5, PEA-13.

Test [5] has as its target acidic pH binding sites (Neogale vison, UniProt A0A8C7BSJ2). Description: Specific binding of 125I-ligands to Mv1Lu cells at acidic pH. Details: species or system mink.
Test [6] deals with TβR-V purified from bovine liver plasma membranes. Description: 125I-IGFBP-3 / 125I-TGF-β1 affinity labeling of purified TβR-V. In kind it is binding. Particulars: DSS, β1^25(41-65) 20 μM, RAP 10-40 μg/ml, α2M* 100 nM, lactoferrin 100 nM.
The target of test [7] is T1, acidic pH binding sites. Description: Specific binding of 125I-ligands to MEF cells at acidic pH. To be noted: 10 μM protein, pH 5.5, MEF.
Test [8] addresses T2, LRP-1 (Mus musculus, UniProt Q91ZX7).
T2 construct: endogenous in cells; host or cells: MEF (mouse embryonic fibroblasts)
Description: 125I-α2M* binding to MEF cells at pH 7.4. To be noted: 10 μM protein, pH 7.4, MEF.

Sequence of acidic pH binding sites (Neogale vison, UniProt A0A8C7BSJ2) (A0A8C7BSJ2 entry or part of it): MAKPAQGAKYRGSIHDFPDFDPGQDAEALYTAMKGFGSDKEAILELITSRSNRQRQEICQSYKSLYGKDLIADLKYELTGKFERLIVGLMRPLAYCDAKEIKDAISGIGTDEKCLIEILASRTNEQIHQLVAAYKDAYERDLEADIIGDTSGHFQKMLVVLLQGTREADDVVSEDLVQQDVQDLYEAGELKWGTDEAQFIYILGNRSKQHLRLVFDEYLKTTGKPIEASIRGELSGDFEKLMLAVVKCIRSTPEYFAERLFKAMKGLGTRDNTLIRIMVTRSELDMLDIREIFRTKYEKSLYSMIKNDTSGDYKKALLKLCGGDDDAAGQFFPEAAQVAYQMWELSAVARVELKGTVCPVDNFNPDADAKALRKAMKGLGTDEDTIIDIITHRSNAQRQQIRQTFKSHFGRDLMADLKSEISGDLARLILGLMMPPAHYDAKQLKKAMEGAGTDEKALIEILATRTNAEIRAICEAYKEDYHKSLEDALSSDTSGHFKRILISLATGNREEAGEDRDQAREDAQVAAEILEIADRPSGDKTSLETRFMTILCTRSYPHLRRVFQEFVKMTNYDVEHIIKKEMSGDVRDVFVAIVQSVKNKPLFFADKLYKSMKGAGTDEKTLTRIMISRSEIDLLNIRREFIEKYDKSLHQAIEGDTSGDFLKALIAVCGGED
T2 sequence (Q91ZX7 20-4545): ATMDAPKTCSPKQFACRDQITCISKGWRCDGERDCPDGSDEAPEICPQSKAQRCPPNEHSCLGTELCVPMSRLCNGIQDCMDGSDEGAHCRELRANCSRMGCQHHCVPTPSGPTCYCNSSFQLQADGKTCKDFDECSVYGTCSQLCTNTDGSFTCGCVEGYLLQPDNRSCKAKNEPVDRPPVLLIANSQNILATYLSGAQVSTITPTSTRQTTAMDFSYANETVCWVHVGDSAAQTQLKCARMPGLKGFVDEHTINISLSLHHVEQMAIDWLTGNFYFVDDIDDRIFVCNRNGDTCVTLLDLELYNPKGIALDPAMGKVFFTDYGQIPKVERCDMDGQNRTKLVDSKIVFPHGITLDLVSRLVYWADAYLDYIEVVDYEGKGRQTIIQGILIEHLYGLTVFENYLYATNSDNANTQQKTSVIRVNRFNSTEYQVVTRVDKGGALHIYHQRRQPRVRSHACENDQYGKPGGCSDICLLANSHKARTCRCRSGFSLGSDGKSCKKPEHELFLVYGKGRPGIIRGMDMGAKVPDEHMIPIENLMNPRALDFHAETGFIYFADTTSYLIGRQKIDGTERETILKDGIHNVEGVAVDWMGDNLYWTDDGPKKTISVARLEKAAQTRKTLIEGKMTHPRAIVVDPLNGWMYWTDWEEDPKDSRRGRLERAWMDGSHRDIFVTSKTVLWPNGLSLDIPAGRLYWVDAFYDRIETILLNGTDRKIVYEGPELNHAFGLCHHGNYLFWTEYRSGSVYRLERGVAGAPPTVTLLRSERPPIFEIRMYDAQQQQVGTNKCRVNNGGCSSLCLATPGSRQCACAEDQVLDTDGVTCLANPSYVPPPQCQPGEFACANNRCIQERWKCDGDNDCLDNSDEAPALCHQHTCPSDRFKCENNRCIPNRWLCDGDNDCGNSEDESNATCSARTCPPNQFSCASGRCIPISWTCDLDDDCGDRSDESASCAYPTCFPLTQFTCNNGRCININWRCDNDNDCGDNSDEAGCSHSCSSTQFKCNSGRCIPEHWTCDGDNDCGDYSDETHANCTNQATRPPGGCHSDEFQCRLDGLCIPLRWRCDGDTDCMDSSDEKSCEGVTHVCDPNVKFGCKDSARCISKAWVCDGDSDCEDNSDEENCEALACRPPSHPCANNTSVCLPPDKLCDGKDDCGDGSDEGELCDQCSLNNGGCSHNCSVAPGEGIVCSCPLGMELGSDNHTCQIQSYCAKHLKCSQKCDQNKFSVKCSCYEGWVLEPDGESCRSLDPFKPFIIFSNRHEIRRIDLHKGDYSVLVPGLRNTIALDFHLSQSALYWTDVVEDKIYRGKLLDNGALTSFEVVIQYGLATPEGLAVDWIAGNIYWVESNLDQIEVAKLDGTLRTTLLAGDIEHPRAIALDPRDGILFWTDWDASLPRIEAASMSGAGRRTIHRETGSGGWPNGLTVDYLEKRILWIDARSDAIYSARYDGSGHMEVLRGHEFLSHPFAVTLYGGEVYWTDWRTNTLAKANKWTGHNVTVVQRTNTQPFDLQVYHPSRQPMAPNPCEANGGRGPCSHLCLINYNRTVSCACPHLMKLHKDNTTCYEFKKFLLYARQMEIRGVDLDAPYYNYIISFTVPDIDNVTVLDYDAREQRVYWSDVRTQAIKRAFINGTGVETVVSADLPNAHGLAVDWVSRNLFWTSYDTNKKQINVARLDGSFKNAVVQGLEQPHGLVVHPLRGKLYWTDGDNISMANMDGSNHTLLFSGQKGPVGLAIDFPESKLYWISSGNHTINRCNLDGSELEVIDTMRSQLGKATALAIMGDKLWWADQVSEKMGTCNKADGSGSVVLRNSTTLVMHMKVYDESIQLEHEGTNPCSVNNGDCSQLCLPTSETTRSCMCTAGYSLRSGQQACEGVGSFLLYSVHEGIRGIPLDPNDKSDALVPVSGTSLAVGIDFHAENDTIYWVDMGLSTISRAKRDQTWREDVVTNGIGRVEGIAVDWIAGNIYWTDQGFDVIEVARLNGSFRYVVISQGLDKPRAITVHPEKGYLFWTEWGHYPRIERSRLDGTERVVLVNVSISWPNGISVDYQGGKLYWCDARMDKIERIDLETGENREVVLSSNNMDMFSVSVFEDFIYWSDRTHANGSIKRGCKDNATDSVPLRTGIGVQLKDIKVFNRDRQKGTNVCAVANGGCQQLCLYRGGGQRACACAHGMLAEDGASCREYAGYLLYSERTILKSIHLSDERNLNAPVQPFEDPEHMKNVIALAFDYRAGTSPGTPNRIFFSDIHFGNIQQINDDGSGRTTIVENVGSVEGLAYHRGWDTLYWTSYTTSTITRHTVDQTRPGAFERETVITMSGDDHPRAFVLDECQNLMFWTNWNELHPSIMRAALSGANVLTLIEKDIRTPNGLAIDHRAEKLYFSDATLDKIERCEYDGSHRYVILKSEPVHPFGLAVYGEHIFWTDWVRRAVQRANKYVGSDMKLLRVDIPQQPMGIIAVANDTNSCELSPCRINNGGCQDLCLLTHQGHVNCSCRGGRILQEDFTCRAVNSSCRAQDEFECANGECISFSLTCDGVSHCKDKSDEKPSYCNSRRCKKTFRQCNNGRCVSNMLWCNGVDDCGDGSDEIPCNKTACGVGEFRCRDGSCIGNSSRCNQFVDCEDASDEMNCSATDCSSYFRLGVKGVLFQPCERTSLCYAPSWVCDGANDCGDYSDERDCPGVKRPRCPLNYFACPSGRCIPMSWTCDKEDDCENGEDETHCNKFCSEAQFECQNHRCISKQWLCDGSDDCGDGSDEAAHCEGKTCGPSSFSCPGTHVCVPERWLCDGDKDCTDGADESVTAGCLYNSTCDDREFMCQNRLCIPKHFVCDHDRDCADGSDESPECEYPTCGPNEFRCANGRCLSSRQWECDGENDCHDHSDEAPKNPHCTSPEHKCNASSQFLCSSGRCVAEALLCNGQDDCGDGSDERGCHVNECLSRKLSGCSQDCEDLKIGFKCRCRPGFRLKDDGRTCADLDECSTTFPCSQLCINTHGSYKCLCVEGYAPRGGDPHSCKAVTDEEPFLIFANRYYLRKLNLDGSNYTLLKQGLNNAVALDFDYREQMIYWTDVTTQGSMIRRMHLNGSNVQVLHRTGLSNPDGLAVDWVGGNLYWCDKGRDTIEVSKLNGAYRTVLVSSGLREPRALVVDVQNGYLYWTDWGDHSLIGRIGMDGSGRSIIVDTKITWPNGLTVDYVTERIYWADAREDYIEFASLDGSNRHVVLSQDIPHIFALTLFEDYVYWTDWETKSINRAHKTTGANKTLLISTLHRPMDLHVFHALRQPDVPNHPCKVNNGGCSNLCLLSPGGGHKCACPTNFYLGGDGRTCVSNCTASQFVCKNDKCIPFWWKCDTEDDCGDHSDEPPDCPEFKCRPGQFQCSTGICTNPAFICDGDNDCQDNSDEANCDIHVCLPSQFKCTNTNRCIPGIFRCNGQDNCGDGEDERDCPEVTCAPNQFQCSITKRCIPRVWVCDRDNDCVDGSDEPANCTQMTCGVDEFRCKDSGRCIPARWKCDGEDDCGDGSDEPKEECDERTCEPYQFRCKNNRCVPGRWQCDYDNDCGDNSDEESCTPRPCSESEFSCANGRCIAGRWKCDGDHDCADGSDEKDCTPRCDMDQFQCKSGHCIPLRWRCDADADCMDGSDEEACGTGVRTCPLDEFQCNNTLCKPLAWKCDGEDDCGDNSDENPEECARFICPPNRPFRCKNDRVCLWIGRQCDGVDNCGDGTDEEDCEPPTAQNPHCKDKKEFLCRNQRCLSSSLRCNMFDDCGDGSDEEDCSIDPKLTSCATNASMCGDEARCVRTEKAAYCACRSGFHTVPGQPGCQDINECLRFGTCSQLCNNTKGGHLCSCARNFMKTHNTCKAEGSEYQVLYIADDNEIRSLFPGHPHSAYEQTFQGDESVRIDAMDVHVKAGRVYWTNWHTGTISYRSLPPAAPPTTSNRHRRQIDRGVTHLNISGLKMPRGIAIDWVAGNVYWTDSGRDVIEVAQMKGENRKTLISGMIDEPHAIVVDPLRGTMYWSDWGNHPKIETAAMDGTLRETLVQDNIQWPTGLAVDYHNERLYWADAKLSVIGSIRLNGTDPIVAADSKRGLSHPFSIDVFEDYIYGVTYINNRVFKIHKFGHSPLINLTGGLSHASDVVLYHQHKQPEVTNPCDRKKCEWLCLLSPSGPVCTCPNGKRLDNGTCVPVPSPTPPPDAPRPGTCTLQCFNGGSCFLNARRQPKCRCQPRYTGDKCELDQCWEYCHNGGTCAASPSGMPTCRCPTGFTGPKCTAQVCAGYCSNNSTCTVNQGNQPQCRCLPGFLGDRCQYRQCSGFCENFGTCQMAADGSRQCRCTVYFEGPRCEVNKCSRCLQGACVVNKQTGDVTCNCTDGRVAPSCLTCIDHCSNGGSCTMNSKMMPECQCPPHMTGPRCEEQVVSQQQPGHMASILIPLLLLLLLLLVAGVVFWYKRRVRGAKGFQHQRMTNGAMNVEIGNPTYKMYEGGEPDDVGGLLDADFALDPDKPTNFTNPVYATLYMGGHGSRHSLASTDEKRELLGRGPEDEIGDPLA

B1: IGFBP-1: IGFBP known not to bind to the IGFBP-3 receptor (protein)
chain: APWQCAPCSAEKLALCPPVSASCSEVTRSAGCGCCPMCALPLGAACGVATARCARGLSCRALPGEQQPLHALTRGQGACVQESDASAPHAAEAGSPESPESTEITEEELLDNFHLMAPSEEDHSILWDAISTYDGSKALHVTNIKKWKEPCRIELYRVVESLAKAQETSGEEISKFYLPNCNKNGFYHSRQCETSMDGEAGLCWCVYPWNGKRIPGSPEIRGDPNCQIYFNVQN
Consider B1, for which the “Induction of specific dephosphorylation (mobility change) of 32P-labeled IRS-2” value in test [1] is on record as “did not induce”.

B2: (Q^3A^4Y^15L^16) IGF-I: an IGF-I analog which has a low affinity for IGFBP-3 (protein, UniProt P05019 49-118, looked up, variant E3Q T4A Q15Y F16L)
Insulin-like growth factor 1: GPQALCGAELVDALYLVCGDRGFYFNKPTGYGSSSRRAPQTGIVDECCFRSCDLRRLEMYCAPLKPAKSA
modifications: Insulin-like growth factor I
On to B2, for which the “Blocking of IGFBP-3-induced specific dephosphorylation of IRS-2 by growth factors/cytokines” value in test [1] (IGFBP-3 1 μg/ml […] then factor 10 nM (TGF-β1 20 pM) 0.5 hr) is reported as “blocked”. For the same molecule, the “Blocking of IGFBP-3-induced growth inhibition” value in test [2] is on record as “completely blocked”.

B3: IGFBP-2: IGFBP known not to bind to the IGFBP-3 receptor (protein, UniProt P18065 36-325, looked up)
Insulin-like growth …: AEVLFRCPPCTPERLAACGPPPVAPPAAVAAVAGGARMPCAELVREPGCGCCSVCARLEGEACGVYTPRCGQGLRCYPHPGSELPLQALVMGEGTCEKRRDAEYGASPEQVADNGDDHSEGGLVENHVDSTMNMLGGGGSAGRKPLKSGMKELAVFREKVTEQHRQMGKGGKHHLGLEEPKKLRPPPARTPCQQELDQVLERISTMRLPDERGPLEHLYSLHIPNCDKHGLYNLKQCKMSLNGQRGECWCVNPNTGKLIQGAPTIRGDPECHLFYNEQQEARGVHTQRMQ
On to B3, for which, in test [1], the “Induction of specific dephosphorylation (mobility change) of 32P-labeled IRS-2” value was “did not induce”.

B4: lactoferrin: bovine lactoferrin, an LRP-1 ligand (protein, UniProt P24627 20-708, looked up)
Lactotransferrin: APRKNVRWCTISQPEWFKCRRWQWRMKKLGAPSITCVRRAFALECIRAIAEKKADAVTLDGGMVFEAGRDPYKLRPVAAEIYGTKESPQTHYYAVAVVKKGSNFQLDQLQGRKSCHTGLGRSAGWIIPMGILRPYLSWTESLEPLQGAVAKFFSASCVPCIDRQAYPNLCQLCKGEGENQCACSSREPYFGYSGAFKCLQDGAGDVAFVKETTVFENLPEKADRDQYELLCLNNSRAPVDAFKECHLAQVPSHAVVARSVDGKEDLIWKLLSKAQEKFGKNKSRSFQLFGSPPGQRDLLFKDSALGFLRIPSKVDSALYLGSRYLTTLKNLRETAEEVKARYTRVVWCAVGPEEQKKCQQWSQQSGQNVTCATASTTDDCIVLVLKGEADALNLDGGYIYTAGKCGLVPVLAENRKSSKHSSLDCVLRPTEGYLAVAVVKKANEGLTWNSLKDKKSCHTAVDRTAGWNIPMGLIVNQTGSCAFDEFFSQSCAPGADPKSRLCALCAGDDQGLDKCVPNSKEKYYGYTGAFRCLAEDVGDVAFVKNDTVWENTNGESTADWAKNLNREDFRLLCLDGTRKPVTEAQSCHLAVAPNHAVVSRSDRAAHVKQVLLHQQALFGKNGKNCPDKFCLFKSETKNLLFNDNTECLAKLGGRPTYEEYLGTEYVTAIANLKKCSTSPLLEACAFLTR
In the case of B4, the “^125I-α2M* binding” value in test [3] and in test [8] was “did not have a significant effect” throughout. Besides, the “Specific binding of ^125I-α2M*” value is on record as “completely blocked” in test [4]; “completely blocked” in test [5] (10 μM protein, pH 5.5, Mv1Lu); “completely blocked” in test [7]. In addition, the half-maximal inhibitory concentration (IC50) in test [5] (Mv1Lu cells, pH 5 or 6, read-out: IC50, inhibition of ^125I-α2M* binding to cells) was ~50 nM. In addition, the “^125I-TGF-β1 binding to purified TβR-V” value in test [6] (0.1 nM 125I-TGF-β1, […] 0° C.) is listed as “did not have a significant effect”. Moreover, the “^125I-IGFBP-3 binding to purified TβR-V” value in test [6] (10 nM 125I-IGFBP-3, […] 0° C.) was “did not have a significant effect”.

Broadly, the IC50 is the concentration that gives 50% inhibition.

The record behind these values is US7741283B2, “Compositions and methods for inhibiting cell proliferation” (St. Louis University, priority 2003, dated 2010).
